The text below walks through data of the nanobody polyreactivity screen of Harvey et al. (2022).

The nature of this series: yeast display, Sf9 membrane polyspecificity reagent, FACS + sequencing; frameworks hold sequencing errors. The gist of the method:
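Galactose induction of a Saccharomyces cerevisiae BJ5465 synthetic nanobody display library ran 36–48 hours. The cells were then stained for 1 hour at 4 °C with 10% biotinylated, detergent-solubilized Sf9 membrane reagent, pulled down on streptavidin microbeads and FACS-sorted into low and high (top ~1%) gates on expression and reagent-binding fluorescence. Labels for polyreactivity follow the gate of origin.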
Take “QVQLVESGGGLVQAGGSLRLSCAASGRIFRKYTMGWYRQAPGKERELVAAITWSGGSTYYADSVKGRFTISRDNAKNTVYLQMNSLKPEDTAVYYCAARSIGGYRAVDTYYYWGHGTQVTVSS”: the “polyreactivity (PSR sort gate)” value is given as “high polyreactivity”.
The entry for “QVQLVESGGGLVQAGGSLRLSCAASGYIFIRNAMGWYRQAPGKERELVAAISWTGGSTYYADSVKGRFTISRDNAKNTVYLQMNSLKPEDTAVYYCNKYYRAWLLWDYGYWGQGTQVTVSS” is “high polyreactivity”; for “QVQLVESGGGLVQAGGSLRLSCAASGRTFDGNAMGWYRQAPGKERELVAAISKRGGTTYYADSVKGRFTISRDNAKNTVYLQMNSLKPEDTAVYYCAAPYNTYSYSEGEYWGQGTQVTVSS” it is “low polyreactivity”.
For the sequence “QVHLVESGGGLVQAGGSLRLSCAASGFTFYSYAMGWYRQAPGKERELVANITIGGSTYADSVKGRFTISRDNAKNTVYLQMNSLKPEDTAVYYCARGYRVVGDPLYGDYDYWGQGTQVTVSS”, the “polyreactivity (PSR sort gate)” value is “low polyreactivity”.
To “QVQLVESGGGLVQAGGSLRLSCAASGRIFYKYAKGWYRQAPGKERELVAAITTSGGSTYYADSVKGRFTISRDNAKNTVYLQMKSLKPEDTAVYYCARDLNGRFLTTGRGMDYWGQGTQVTVSS” belongs “high polyreactivity”.
To “QVQLVESGGGLVQAGGSLRLSCAASGSIFTRNAMGWSRQAPGKEREFVAAISSSGVSTYYADSVKGRFTISRDNAKNTVYLQMNSLKPEDTAVYYCAARWGTKSGRYDYWGQGTQVTVSS” belongs “high polyreactivity”; to “QVQLVESGGGLVQAGGSLRLSCAASGIIFAHNAMGWYRQAPGKERELVAAISKRGGSTYYADSVKGRFTISRDNAKNTVYLQMNSLKPEDTAVYYCNKYSSYSFTYDSWGQGTQVTVSS”, “high polyreactivity”.
The entry for “QVQLVESGGGLVQAGGSLRLSCAASGFTIYKNAMAWYRQAPGKERELVAAISGRGGSTTYADSVKGRFTISRDNAKNTVYLQMNSLKPEDTAVYYCAARFTYSYPLFGSWGQGTQVTVSS” is “high polyreactivity”.
For the sequence “QVQLVESGGGLVQAGGILRLSCAASGLTFYGYAMGWYRQAPGKERELVAAITRGGGSTYYADSVKGRFTISRDNAKNTVYLQMNSLKPDDTAVYYCAADQTGWGDTYYYWGQGTQVTVSS”, the “polyreactivity (PSR sort gate)” value is given as “low polyreactivity”.
For “QVQLVESGGGVVQAGGSLRLSCAASGSTFYLYDMGWYRQEPGKERELVATITSGTSTTYADSVKGRYTISRDNAKNTVYLQMNSLKPEDTAVYYCNATDVGIITVGYGHGGYYWGQGTQVTVSS”, the “polyreactivity (PSR sort gate)” value was “low polyreactivity”.
“QVQLVESGGGLVQAGGSLRLSCAASGRIITEYVTGCYTQAPGKERELDAAAITRGGSTNYADSVKGRFTLSRDNAKNTVYLQKNSLIPEDTAVYHCNKDDWPVSRQLYTGKHDSWGQGTQVTVSS”: the “polyreactivity (PSR sort gate)” value is “low polyreactivity”.
On to “QVQLVESGGGLVQAGGSLRLSCAASGYLFSYYAMGWSRQAPGKERELVATIDWGGGSTYYADSVKGRFTISRDNAKNTVYLQMNSLKPEDTGVYYCSKDYYITKYGYRYDSWGQGTQVTVSS”, for which the “polyreactivity (PSR sort gate)” value is on record as “low polyreactivity”.
The entry for “QVQLVESGGCLVQAGGSLSLSCAASGFTFTYYDMGWYRQAPGKERELVAAITRRGGRTYYADSVKGRFTISRDNAKNTVYLQMNSLKPEDTAVYYCNADEYGGSTGRKGRYNYWGQGTQVTVSS” is “low polyreactivity”; for “QVQLVESGGGLVQAGGSLRLSCAASGNTIFAYVMGWYRQAAGKEREFVAAISRRDGRTYYADSVKGRFTISRDNAKNTVYLQMNSLKPEDTAVYYCNAQRHFWHLYAPSSFDYWGQGTQVTVSS” it is “low polyreactivity”; for “QVQLVESGGGLVHAGGSLRLSCAASGSILNGYVMGWYRQAPGKERELVGTYYADSVKGRFTISRDNAKNTVYLQMNSLKPEDTAVYYCAADIGDGSEFDYWGLGTQVTVSS” it is “low polyreactivity”.
The entry for “QDQLVESWGGLVQAGGSLRLICAASGFIFRSYAMGWYRQAPGKERELVAAITYSGGRTYYADSVKGRFTISRDNAKNTVYLQMNSLKPEDTAVYYCAAETRVDFYWGQGTQVTVSS” is “high polyreactivity”; for “QVQLVESGGGLVQAGGSLRLSCAASGSILSHYAMGWYRQAPGKERELVAAITTRGGSTYYADSVKGRFTISRDNAKNTVFLQMNSLKPEDTAVYYCAARGGVDSAYYGYWGQGTQVTVSS” it is “high polyreactivity”; for “QVQLVESGGGLVQAGGRLRLSCAASGFTIPYKAMGWYRQAPGKERELVAAISRSGTRTYYADSVKGRFTISRDNAKNTLYIQMNSLKPEDTAVYYCAKDTIGGASPHYYWGKGTQVTVSS” it is “high polyreactivity”.
To “QVQLVESGGGLVQAGGSLRLSCAASGFTFFMYAMGGDRQAPGKEREFVASITGSGGSTYYADSVKGRFTISRDTAKNSVYLQMNSLKPEDTAVYYCNKLSYGRSGYWGQGTQVTVSS” belongs “high polyreactivity”; to “QVQLVESGGGLVQAGGSLRLSCAASGRIIGYYAMGWYRQAPGKERELGAAITRGGSTNYADSVKGRFTISRDNAKNTVYLQMNSLKPEDTAVYYCAADLARYGKRYDYWGQGTQVTVSS”, “low polyreactivity”; to “QVQLVESGGGLVQAEGRLRLSCAASGRIFPHYAMGWYRQAPGKERELVAAISRSGVSTYYADSVKGRFTISRDIAKNTVYLQMNSLKPEDTAVYYCASRSYILGWRYDYWGQGTQVTVSS”, “high polyreactivity”.
For “QVQLVESGGGLVQAGGSLRLSCAASGITFPYYAMGWYRQAPGKERELVASINRSGGTNYADSVKGRFTISRDNAKNTVYLPMNSLKPVDTAVYYCAAPGRYGEYDYWGQGTQVNVSS”, the “polyreactivity (PSR sort gate)” value is “low polyreactivity”.
To “QVQLVDSGGGLVQAGGSLRLSSAASGITFQRYAMGWYRQAPGKERELVAGINGRGGSTYYADSVKGRFTISRDNAKNTVYLQMNSLKPEDTAVYYCNAVYAGRYFGFDYWGQGTQVTVSS” belongs “high polyreactivity”; to “QVQLVESGGGLVQAGGSLRLSCAASGSIFRWYDMGWYRQAPGKERELVAVISKRGGSTYYADSVKGRFTISRDNAKNTVYLQMNSLKPEDTAVYYCAKRYERWQLARLDYWGQGTQVTVSS”, “high polyreactivity”; to “QVQLVESCGGLFQAGGSLRLSCAPSGRTSWVYAMGWYRQAPAKERELVASIRKRTVVYADSVKGRFTISRENAKNTVYLQMNSLKPEETAVYYCNTDYSSTSQWRAANYWGQGTQVTVSS”, “high polyreactivity”.
“QVQLVESGGGLVQAGGSLRLSCAASGRIFFLYAMAWYRQAPGKEREFVAAISSSGGSTYYADSVKGRFTISRDNAKNTVYLKMNSLKPEDTAVYYCNADATWSGYIVSYDYWGQGTQVTVSS”: the “polyreactivity (PSR sort gate)” value is on record as “low polyreactivity”.
On to “QVQLVESGGGLVQAGGSLRLSCAASGRIFSNNAMGWYRQAPGKERELVAAITNSGGSTYYADSVKGRFTISRDNAKNTVYLQMNSLKPEDTAVYYCAADHLSVQYDVYWTYYYWGQGTQVTVSS”, for which the “polyreactivity (PSR sort gate)” value is recorded as “low polyreactivity”.
The entry for “QVQLVESGGGLVQAGGSLRLSCAASGFTFPYYAMGWYRQAPGKERELVATISNGGNTYYADSVKGRFTISRDNAKNTVYLQMNSLKPEDTAVYYCNAVVWAWMGYWGQGTQVTVSS” is “high polyreactivity”.
For the sequence “QVQLVESGGGLLQAGGSLRLSCAASGSTFTAYAMGWYRQAPGKERELVADISDSGGSTYYADSEKGRFTISRDNAKNTVYLQINSLKPEDTAVYYCAVHVRAFVVSKFDSRGQGTQVTVSS”, the “polyreactivity (PSR sort gate)” value is recorded as “low polyreactivity”.
As to “QVHLVESGGRLVLAGGSLRLSCAASRRIFDLNAMRGYIQAPGKERELFAAITNTGSTNYADSVKGRFTISRDNAKNTVYLQMNSLKPEDTAVYYCARTYWLRYFGYRDDEYDYWGQGTQVTVSS”, the “polyreactivity (PSR sort gate)” value was “low polyreactivity”.
For “QVQLVESGGGLVQAGGSLRLSCAASGITFVPNAMGWYRQAPGKERELVAAITGNGGRTYYADSVKGRFTISRDNAKNTVYLQMNSLKPEDTAVYYCNGRKLYWAYTLSKYDYWGQGTQLTVSS”, the “polyreactivity (PSR sort gate)” value is reported as “high polyreactivity”.
The entry for “QVQLVESGGGLVQAGGSLRLSCAASGRIFVRNTMGWYRQAPGKERELVAAINSGGSTYYADSVKGRFTISRDNENNTVYLQMNSLKPEDTAVYYCAGQFYLFYEYDYWGQGTQVTVSS” is “high polyreactivity”; for “QVQLVQSGGGLVQAGGSLRVSSAASGNIFAYYAKGWYSQAPGKERELVAAITDSGGNTFYADSVKGRFTISRDQAKNTVYLQMNSLKPEDTAVYYCAADTFYSYYDMDYWGQGTQVTVSS” it is “low polyreactivity”; for “QVQLVESGGGFVQAGGSLRLSCAASGRIFPWNTMGWYRQATGNERELVAGITSGGSTNYADSVKGRFTISRDNAKNTVYLQMNSLKPEDTAVYNCAARGYYWYISGVYEYEYWGQGTQVTVSS” it is “low polyreactivity”.
To “QVQLVESGGGLVQAGGSLRLSCAASGRIFSYNAMGWYRQAPGKERELVAAISYSGGRTYYADSVKGRFTISRDNAKNTVYLQMNSLKPEDTAVYYCAAAYGGSLRYTAGYYWGQGTQVTVSS” belongs “high polyreactivity”; to “QVQLVESGGGLVQAGGSLRLSCVASGRTFSRYAMGWYRQAPGKERELVAAISLRCGRTKYADSVKGRFTISRDNAKNTVYLQMNSLKPEDTAVYYCAADIYYGYPWRYHAGYYEGFDYWGQGTQVTVSS”, “high polyreactivity”; to “QVQLVESGGGLVQAGGSLRLSCAASGSTFSPYAMGWYRQAPGKEMDFVAAITSSGGSTYYADSVKGRFTISRDNAKNTVYLQMNSLKPEDTALYYFAAEGYYTSTYDLFDYYYWGQGTQVTVSS”, “low polyreactivity”.
To “QVQLVESGGGLDQAGGTLRLSCAASGSTFSDYAMGWYRQAPGKERQLVAAISVSDGSTYYADSVKGRFTISRDNAKNTVYFQMNSLKPEDTAVYYCAAEYPYFVYSYFRFDYWGQGTQVTVSS” belongs “low polyreactivity”.
As to “QGHLDESGGGIVQAGGSLRLSCAASGITVVTYAMGWYRQAPGKERELVAAISRSGGRTYYADSVKGRFTISRDNAKNTVYLLMNSLKPEDTAVYYCAAERKNKYDYWGQGTQVTVSS”, the “polyreactivity (PSR sort gate)” value is on record as “high polyreactivity”.
The entry for “QVQLVESGGGLVQAGGSLRLSCAASGLTLTHYAMGWYRQAPGKERELVAAISSSGGRTYYADSVKGRFTISRDNAKNTVYLQMNSLKPEDTAVYYCAARVIASRGRYGYWGQGTQVTVSS” is “high polyreactivity”.
